Consider 5 molecules from patent US20210139559A1 (XL PROTEIN, published 2021).

Test [1] concerns the target T1, human VEGF165 ligand (human, UniProt P15692-4 27-191).
T1 construct: also called VEGF-A165
As to the kind of experiment: serial dilution mixed with 50 pM human VEGF165 in solution, unbound VEGF165 measured by ELISA. How it is done:
The amount of unbound VEGF₁₆₅ was then measured by a human VEGF-specific ELISA (Human VEGF DuoSet ELISA kit, R&D Systems, CAT. No. DY293B-05).
(§1) Unbound human VEGF₁₆₅ or PDGF-BB was calculated using 4 parameters curve with the absorbance value. And the IC₅₀ of the tested fusion proteins and the reference was calculated using 4 parameters curve with unbound human VEGF₁₆₅ or PDGF-BB.
(In general: ELISA stands for enzyme-linked immunosorbent assay.)

In test [2] the target is T1, human VEGF165 ligand. Kind of test: cell-based or functional assay.
Test [3] deals with T2, human PDGF-BB ligand (human, UniProt P01127 82-190). As to the kind of experiment: serial dilution mixed with 1 ng/ml human PDGF-BB in solution, unbound PDGF-BB measured by ELISA. How it is done:
The amount of unbound PDGF-BB was then measured by a human PDGF-BB-specific ELISA (Human PDGF-BB DuoSet ELISA kit, R&D Systems, CAT. No. DY220).
as §1

Test [4] deals with T2, human PDGF-BB ligand. As to the kind of experiment: native PAGE electromobility gel shift; alone or together with VEGF165. Here is the method: EPS1104P was mixed with VEGF₁₆₅ (#C083, Novoprotein, Shanghai, China), PDGF-BB (#C199, Novoprotein, Shanghai, China) and VEGF+PDGF-BB, and incubated in an ice bath for 30 min. 40 μL of the above three incubation mixtures and EPS1104P were added to 10 μl of 5× Loading buffer (#ES005, Wanshenghaotian, Shanghai, China), respectively, and the four samples were loaded on a native PAGE gel (#NGSH2001-8T, Wanshenghaotian, Shanghai, China). The electrophoresis was run at 70 V for 6 hours. The gel was stained with Coomassie blue and then bleached. […] It is also possible to combine EPS1104P with both VEGF165 and PDGF-BB to form a stable complex.
(A gel shift assay detects complexes by their altered migration in electrophoresis.)

Test [5] deals with T1, human VEGF165 ligand. As to the kind of experiment: cell-based or functional assay. This is another data set of the same source.

Like-named read-outs stand apart in the source and are kept apart here.

Broadly, the IC50 is the concentration that inhibits the measured activity by half. The low end stands for inhibition by little substance, the high end for a need for much substance.

T1 sequence (P15692 other isoform, or with tags, fused parts or gaps limits assumed): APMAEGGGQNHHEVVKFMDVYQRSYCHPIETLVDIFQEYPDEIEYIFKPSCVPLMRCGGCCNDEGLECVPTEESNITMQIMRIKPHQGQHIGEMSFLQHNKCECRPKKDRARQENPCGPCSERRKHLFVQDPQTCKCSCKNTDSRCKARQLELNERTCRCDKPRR
T2 sequence (P01127 82-190): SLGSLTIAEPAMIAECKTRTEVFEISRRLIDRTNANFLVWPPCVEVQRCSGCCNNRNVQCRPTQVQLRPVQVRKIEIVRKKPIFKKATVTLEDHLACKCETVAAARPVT

B1: PDGFRαD123-(GGGGS)3-PAS(200)-(GGGGS)3-VEGFR1D2/R2D3 (receptor)
chain: QLSLPSILPNENEKVVQLNSSFSLRCFGESEVSWQYPMSEEESSDVEIRNEENNSGLFVTVLEVSSASAAHTGLYTCYYNHTQTEENELEGRHIYIYVPDPDVAFVPLGMTDYLVIVEDDDSAIIPCRTTDPETPVTLHNSEGVVPASYDSRQGFNGTFTVGPYICEATVKGKKFQTIPFNVYALKATSELDLEMEALKTVYKSGETIVVTCAVFNNEVVDLQWTYPGEVKGKGITMLEEIKVPSIKLVYTLTVPEATVKDSGDYECAARQATREVKEMKKVTISVHEKGGGGGSGGGGSGGGGSASPAAPAPASPAAPAPSAPAASPAAPAPASPAAPAPSAPAASPAAPAPASPAAPAPSAPAASPAAPAPASPAAPAPSAPAASPAAPAPASPAAPAPSAPAASPAAPAPASPAAPAPSAPAASPAAPAPASPAAPAPSAPAASPAAPAPASPAAPAPSAPAASPAAPAPASPAAPAPSAPAASPAAPAPASPAAPAPSAPAGGGGSGGGGSGGGGSSDTGRPFVEMYSEIPEIIHMTEGRELVIPCRVTSPNITVTLKKFPLDTLIPDGKRIIWDSRKGFIISNATYKEIGLLTCEATVNGHLYKTNYLTHRQTNTIIDVVLSPSHGIELSVGEKLVLNCTARTELNVGIDFNWEYPSSKHQHKKLVNRDLKTQSGSEMKKFLSTLTIDGVTRSDQGLYTCAASSGLMTKKNSTFVRVHEKHHHHHH
notes: also called EPS1106P
The molecule B1 had an IC50 with human VEGF165 ligand [1] of 0.555 nM. Besides, the “Inhibition of HUVEC cells proliferation, IC50” value (“Inhibition” for short) with human VEGF165 ligand [2] turned out to be 39.7 nM.

B2: PDGFRαD123-PAS(200)-VEGFR1D2/R2D3 fusion protein (receptor)
chain: QLSLPSILPNENEKVVQLNSSFSLRCFGESEVSWQYPMSEEESSDVEIRNEENNSGLFVTVLEVSSASAAHTGLYTCYYNHTQTEENELEGRHIYIYVPDPDVAFVPLGMTDYLVIVEDDDSAIIPCRTTDPETPVTLHNSEGVVPASYDSRQGFNGTFTVGPYICEATVKGKKFQTIPFNVYALKATSELDLEMEALKTVYKSGETIVVTCAVFNNEVVDLQWTYPGEVKGKGITMLEEIKVPSIKLVYTLTVPEATVKDSGDYECAARQATREVKEMKKVTISVHEKGASPAAPAPASPAAPAPSAPAASPAAPAPASPAAPAPSAPAASPAAPAPASPAAPAPSAPAASPAAPAPASPAAPAPSAPAASPAAPAPASPAAPAPSAPAASPAAPAPASPAAPAPSAPAASPAAPAPASPAAPAPSAPAASPAAPAPASPAAPAPSAPAASPAAPAPASPAAPAPSAPAASPAAPAPASPAAPAPSAPAASDTGRPFVEMYSEIPEIIHMTEGRELVIPCRVTSPNITVTLKKFPLDTLIPDGKRIIWDSRKGFIISNATYKEIGLLTCEATVNGHLYKTNYLTHRQTNTIIDVVLSPSHGIELSVGEKLVLNCTARTELNVGIDFNWEYPSSKHQHKKLVNRDLKTQSGSEMKKFLSTLTIDGVTRSDQGLYTCAASSGLMTKKNSTFVRVHEKHHHHHHA
modifications: glycosylated (as purified from MEXi-293E medium)
notes: also called EPS1108P
Consider B2, for which the IC50 with human PDGF-BB ligand [3] stood at 66.3 nM; with human VEGF165 ligand [1], 0.32 nM. Also, in the test with human VEGF165 ligand [2], the “Inhibition” value was found to be 28.5 nM.

B3: VEGFR1D2/R2D3-(GGGGS)3-PAS(200)-(GGGGS)3-PDGFRαD123 (receptor)
chain: SDTGRPFVEMYSEIPEIIHMTEGRELVIPCRVTSPNITVTLKKFPLDTLIPDGKRIIWDSRKGFIISNATYKEIGLLTCEATVNGHLYKTNYLTHRQTNTIIDVVLSPSHGIELSVGEKLVLNCTARTELNVGIDFNWEYPSSKHQHKKLVNRDLKTQSGSEMKKFLSTLTIDGVTRSDQGLYTCAASSGLMTKKNSTFVRVHEKGGGGSGGGGSGGGGSASPAAPAPASPAAPAPSAPAASPAAPAPASPAAPAPSAPAASPAAPAPASPAAPAPSAPAASPAAPAPASPAAPAPSAPAASPAAPAPASPAAPAPSAPAASPAAPAPASPAAPAPSAPAASPAAPAPASPAAPAPSAPAASPAAPAPASPAAPAPSAPAASPAAPAPASPAAPAPSAPAASPAAPAPASPAAPAPSAPAGGGGSGGGGSGGGGSQLSLPSILPNENEKVVQLNSSFSLRCFGESEVSWQYPMSEEESSDVEIRNEENNSGLFVTVLEVSSASAAHTGLYTCYYNHTQTEENELEGRHIYIYVPDPDVAFVPLGMTDYLVIVEDDDSAIIPCRTTDPETPVTLHNSEGVVPASYDSRQGFNGTFTVGPYICEATVKGKKFQTIPFNVYALKATSELDLEMEALKTVYKSGETIVVTCAVFNNEVVDLQWTYPGEVKGKGITMLEEIKVPSIKLVYTLTVPEATVKDSGDYECAARQATREVKEMKKVTISVHEKGHHHHHH
notes: also called EPS1107P
For B3, the IC50 with human VEGF165 ligand [1] was 0.304 nM. The “Inhibition” value in the test with human VEGF165 ligand [2] was determined as 53.1 nM.

B4: VEGFR1D2/R2D3-PAS(200)-PDGFRαD123 (receptor)
chain: SDTGRPFVEMYSEIPEIIHMTEGRELVIPCRVTSPNITVTLKKFPLDTLIPDGKRIIWDSRKGFIISNATYKEIGLLTCEATVNGHLYKTNYLTHRQTNTIIDVVLSPSHGIELSVGEKLVLNCTARTELNVGIDFNWEYPSSKHQHKKLVNRDLKTQSGSEMKKFLSTLTIDGVTRSDQGLYTCAASSGLMTKKNSTFVRVHEKASPAAPAPASPAAPAPSAPAASPAAPAPASPAAPAPSAPAASPAAPAPASPAAPAPSAPAASPAAPAPASPAAPAPSAPAASPAAPAPASPAAPAPSAPAASPAAPAPASPAAPAPSAPAASPAAPAPASPAAPAPSAPAASPAAPAPASPAAPAPSAPAASPAAPAPASPAAPAPSAPAASPAAPAPASPAAPAPSAPAQLSLPSILPNENEKVVQLNSSFSLRCFGESEVSWQYPMSEEESSDVEIRNEENNSGLFVTVLEVSSASAAHTGLYTCYYNHTQTEENELEGRHIYIYVPDPDVAFVPLGMTDYLVIVEDDDSAIIPCRTTDPETPVTLHNSEGVVPASYDSRQGFNGTFTVGPYICEATVKGKKFQTIPFNVYALKATSELDLEMEALKTVYKSGETIVVTCAVFNNEVVDLQWTYPGEVKGKGITMLEEIKVPSIKLVYTLTVPEATVKDSGDYECAARQATREVKEMKKVTISVHEKGHHHHHH
notes: also called EPS1105P
With B4, in the test with human VEGF165 ligand [1], it took 0.546 nM to reach half-maximal inhibition (IC50). In addition, the “Inhibition” value with human VEGF165 ligand [2] worked out at 28.4 nM.

B5: PDGFRαD123-PAS(400)-VEGFR1D2/R2D3 (receptor)
chain: QLSLPSILPNENEKVVQLNSSFSLRCFGESEVSWQYPMSEEESSDVEIRNEENNSGLFVTVLEVSSASAAHTGLYTCYYNHTQTEENELEGRHIYIYVPDPDVAFVPLGMTDYLVIVEDDDSAIIPCRTTDPETPVTLHNSEGVVPASYDSRQGFNGTFTVGPYICEATVKGKKFQTIPFNVYALKATSELDLEMEALKTVYKSGETIVVTCAVFNNEVVDLQWTYPGEVKGKGITMLEEIKVPSIKLVYTLTVPEATVKDSGDYECAARQATREVKEMKKVTISVHEKGASPAAPAPASPAAPAPSAPAASPAAPAPASPAAPAPSAPAASPAAPAPASPAAPAPSAPAASPAAPAPASPAAPAPSAPAASPAAPAPASPAAPAPSAPAASPAAPAPASPAAPAPSAPAASPAAPAPASPAAPAPSAPAASPAAPAPASPAAPAPSAPAASPAAPAPASPAAPAPSAPAASPAAPAPASPAAPAPSAPAASPAAPAPASPAAPAPSAPAASPAAPAPASPAAPAPSAPAASPAAPAPASPAAPAPSAPAASPAAPAPASPAAPAPSAPAASPAAPAPASPAAPAPSAPAASPAAPAPASPAAPAPSAPAASPAAPAPASPAAPAPSAPAASPAAPAPASPAAPAPSAPAASPAAPAPASPAAPAPSAPAASPAAPAPASPAAPAPSAPASDTGRPFVEMYSEIPEIIHMTEGRELVIPCRVTSPNITVTLKKFPLDTLIPDGKRIIWDSRKGFIISNATYKEIGLLTCEATVNGHLYKTNYLTHRQTNTIIDVVLSPSHGIELSVGEKLVLNCTARTELNVGIDFNWEYPSSKHQHKKLVNRDLKTQSGSEMKKFLSTLTIDGVTRSDQGLYTCAASSGLMTKKNSTFVRVHEKHHHHHH
notes: also called EPS1104P
In the case of B5, the binding result with human PDGF-BB ligand [4] is “binds”. Moreover, the IC50 with human VEGF165 ligand [1] was 0.495 nM. For the same molecule, the “Inhibition” value with human VEGF165 ligand [5] is 1.43 nM.
